Laboratory results reported in patent publication US20160058881A1, “PRODRUGS WITH PROLONGED ACTION” (INDIANA UNIVERSITY RESEARCH AND TECHNOLOGY CORPORATION, priority 2013, published 2016).
Non-standard residues stand in square brackets, D forms with d. Groups on a side chain read outwards from the residue. No end group written: not given here. Phe(4-NH2) = Nc1ccc(C[C@H](N)C(=O)O)cc1; Aib = CC(C)(N)C(=O)O; Sar = CNCC(=O)O

target: GLP-1 receptor (UniProt P43220 24-463, limits assumed); test: cell-based or functional assay

Row | Binder | Relative activity to GLP-1 standard, luciferase cAMP reporter assay, sample after 0 d in 20% human plasma at 37 C | Relative activity to GLP-1 standard, luciferase cAMP reporter assay, sample after 1 d in 20% human plasma at 37 C | Relative activity to GLP-1 standard, luciferase cAMP reporter assay, sample after 5 d in 20% human plasma at 37 C | Restored (percent, 0 d; not defined in the filing, matches the ratio to the parent peptide at the same time) | Restored (percent, 1 d; not defined in the filing, matches the ratio to the parent peptide at the same time) | Restored (percent, 5 d; not defined in the filing, matches the ratio to the parent peptide at the same time)
1 | F[Aib]EGTFTSD[Phe(4-NH2)]SIYLDKQAA[Aib]EFVNWLLAGGPSSGAPPPS-NH2 (N-terminus assumed; SMILES CC[C@H](C)[C@H](NC(=O)[C@H](CO)NC(=O)[C@H](Cc1ccc(N)cc1)NC(=O)[C@H](CC(=O)O)NC(=O)[C@H](CO)NC(=O)[C@@H](NC(=O)[C@H](Cc1ccccc1)NC(=O)[C@@H](NC(=O)CNC(=O)[C@H](CCC(=O)O)NC(=O)C(C)(C)NC(=O)[C@@H](N)Cc1ccccc1)[C@@H](C)O)[C@@H](C)O)C(=O)N[C@@H](Cc1ccc(O)cc1)C(=O)N[C@@H](CC(C)C)C(=O)N[C@@H](CC(=O)O)C(=O)N[C@@H](CCCCN)C(=O)N[C@@H](CCC(N)=O)C(=O)N[C@@H](C)C(=O)N[C@@H](C)C(=O)NC(C)(C)C(=O)N[C@@H](CCC(=O)O)C(=O)N[C@@H](Cc1ccccc1)C(=O)N[C@H](C(=O)N[C@@H](CC(N)=O)C(=O)N[C@@H](Cc1c[nH]c2ccccc12)C(=O)N[C@@H](CC(C)C)C(=O)N[C@@H](CC(C)C)C(=O)N[C@@H](C)C(=O)NCC(=O)NCC(=O)N1CCC[C@H]1C(=O)N[C@@H](CO)C(=O)N[C@@H](CO)C(=O)NCC(=O)N[C@@H](C)C(=O)N1CCC[C@H]1C(=O)N1CCC[C@H]1C(=O)N1CCC[C@H]1C(=O)N[C@@H](CO)C(N)=O)C(C)C) [Peptide D (parent peptide, lacking acylation and lacking a dipeptide prodrug moiety)] | 85.2% | 84.1% | 72.8% |  |  | 
2 | F[Aib]EGTFTSD[Phe(4-NH2)]([Sar-dK-C22 acyl])SIYLDKQAA[Aib]EFVNWLLAGGPSSGAPPPS-NH2 [Peptide D with C22 acylated (d)Lysine-sarcosine dipeptide prodrug moiety at position 10] | 30.9% | 48.2% | 63.2% | 36% | 57% | 87%
3 | F[Aib]EGTFTSD[Phe(4-NH2)]([Lys-C20 acyl])SIYLDKQAA[Aib]EFVNWLLAGGPSSGAPPPS-NH2 (also: acylated amino group of the Lys not given here) | 3.4% | 0.7% | 0.2% |  |  | 
4 | F[Aib]EGTFTSD[Phe(4-NH2)]([Lys-C22 acyl])SIYLDKQAA[Aib]EFVNWLLAGGPSSGAPPPS-NH2 (also: acylated amino group of the Lys not given here) | 1.8% | 2.1% | 0.4% |  |  | 
5 | F[Aib]EGTFTSD[Phe(4-NH2)]([Sar-dK-C20 acyl])SIYLDKQAA[Aib]EFVNWLLAGGPSSGAPPPS-NH2 [Peptide D with C20 acylated (d)Lysine-sarcosine dipeptide prodrug moiety at position 10] | 30.9% | 37.8% | 96.9% | 36% | 45% | 133%
